Paper PMC3821912

Molecular target: areca nut (AN) peroxidase (Areca catechu L.)
Test: native gel or EMSA; native gel without heating or reducing agent; zymogram (20 mM guaiacol, 5 mM H2O2) and Coomassie staining; enzyme desalted with HEPES buffer (20 mM, pH 7.9); dimer to monomers

stoichiometry N: 2
Substance: areca nut (AN) peroxidase (enzyme)
